{"source": "the DeepSol protein solubility set", "data": [{"assay": "soluble on expression in E. coli; label from the status in PepcDB or PDB records", "values": [{"sequence": "MSLDKIMNEAISPWMKGDGPDSDIVLSSRIRLARNFKQYQFSTMQNEEEAQKVQELFKKKFINKAVEPFGKFGLLKMNELTPLQRRVLVEKHLISPNLAGTEYGACLLSESEHISVMLNEEDHIRIQCLFPGLQLSKALQSANQIDNWIEKEVEYAFDESLGYITSCPTNVGTGLRASVMIHLPGLVLTKRISRIIQVIQKLGLVVRGIYGEGSEALGNIFQVSNQMTLGKSEEDIIADLKSVMQQIIQQEKLARELIVQNSSIELEDKVYRSYGILANSRLIQSAEAATCLSDVRLGIDLGYIKGISRNILTELMVLTQPGILQQYAGGPLGPEERDYRRATLIRERLRIEKN", "soluble on expression in E. coli": "not soluble"}, {"sequence": "MPNHLAGETSPYLLQHAENPVDWYPWGEEALEIARMLDKPILLSIGYSACHWCHVMAHESFEDAQVATAMNEHFVNIKVDREERPDIDQIYQSAHYTLNHRSGGWPLTMFLTPEQKPFFGGTYFPKEARYSMPGFLELLPKVAELYRTRKTDIEKQNA", "soluble on expression in E. coli": "not soluble"}, {"sequence": "YHPVFSAKIEQRLIERFGVRRALIALDQPNDEAQRQQVAGLVSNYLTSTLKNGMVVTVGQGRNVSAVAHHVGVITPRDCKFVCSIGGIHPRGGMFNADHICRQLAKKYGGSSETLYAPAYAENPEQKRVFMQNSTVKQTLDLARKADIALVGIGDMSENSYMVDLGWFTPEEVVQSRLNQGVVGDFAGHDFFDVHGRIANTVMNDRVIGLGIDEFRPIAEVIAIAAENSKPLALLGALRTGAIDVIATSVSNALTVLNLDEQMQTALSAS", "soluble on expression in E. coli": "not soluble"}, {"sequence": "MSLPLSKTLVQKLQQAGMAIANNQPQIKFTPLSISDEKGKVALDLNIALVPNPKFDLMHSGLYKQFKDFSINFDVNKETAISLLSKFVPENQKQDLVYRMDELIAEGEANGIIVNTDKTVTLTLALENNDLKLNGKPIPEEQLKVVLFILVMGGFGREGHHHHHH", "soluble on expression in E. coli": "soluble"}, {"sequence": "GMPKANLEIIRSTYEGSASSNAKHLAEALSEKVEWTEAEGFPYGGTYIGVEAIMENVFSRLGSEWNDYKASVNMYHEVSGKDVIIAEGMYSGVYKDTGKSFEAEFVHVWQLENGKIVKFKQYVDSHLVREAMKS", "soluble on expression in E. coli": "soluble"}, {"sequence": "MTGTYEQPVIDATYHNDDQGGHANQLVLKYVEDRKLSKVFKRICDSFKDYYNQPEDMTDEELDYQRVVSLSKSTQGKVNNRDTLIAFISDHNQLAEHLSMNYKEMTPEDLGAILESISQAFNHLYDMVVEGQLLVK", "soluble on expression in E. coli": "not soluble"}, {"sequence": "MDNKVILVGGFHEIIELCEDNDIEIAGIIDNYLTNDTYWGYPIIGTDDKAKVLFETYKNVPVLITPDVPHVRYKLYHYYKSIGFQVASLISRDASISRSAIIGEGTIIQRGANLSSNIKIGQMVKVNTNANIMHDCLIGNYVTVAPNAVLLGKVEIDDKAYIGANATLLPSVKIGENVTVGAGSVVTKSVRLEHHHHHH", "soluble on expression in E. coli": "not soluble"}, {"sequence": "AATQTWTGDLAIVTIPFSSLRFVKVTPPFSYKKRRAVIETHYDQATKVLLEFSRRWWEFTEADWKRELDAIAPGLYDYYQQWGEDDAEAALALPQSVRNLPTGLLGAHPSVDESRIGEEQVEYYRNSELR", "soluble on expression in E. coli": "soluble"}, {"sequence": "MGHHHHHHSHESVVPARMAEMARCIRERDFPSFAQLTMKDSNQFHATCLDTFPPISYLNAISWRIIHLVHRFNAHHGDTKVAYTFDAGPNAVIFTLDDTVAEFVAAVWHGFPPGSNGD", "soluble on expression in E. coli": "not soluble"}, {"sequence": "MATSLDRDKEAVLRALRPYLEGTGTRLFLFGSFARGEGRQASDLDLALLSPVPLKDLMPLLREALEEAPVVRRVDLVDLAEAEPAFRERVLREGVLWAEF", "soluble on expression in E. coli": "soluble"}, {"sequence": "VVELDETPVRTLLARQGIYDKNSAIVAYELLYRNSDAENSHVDNLNQSSGEAATSSVLVQLFANLDVNTIIGNKQAFINFTHSHLVQKIPMLLPKNRIVIEVLETVAIDQPLLLNLMELKKQGYQIALDDFVFRNELAPLVDMADIIKIDVLHLDQQQIAEQLLPLKSFRGKLLAEKIEDKQQFNHCVNLGFDFFQGFFLNKP", "soluble on expression in E. coli": "not soluble"}, {"sequence": "EVQLQASGGGSVQAGQSLRLSCATSGATSSSNCMGWFRQAPGKEREGVAVIDTGRGNTAYADSVQGRLTISLDNAKNTLYLQMNSLKPEDTAMYYCAADTSTWYRGYCGTNPNYFSYWGQGTQVTVSSRGRHHHHHH", "soluble on expression in E. coli": "soluble"}, {"sequence": "MGHHHHHHSHMVAHNQVAADNAVSTAAEPRRRPEPSSSSSSSPAAPARPRPCPAVPAPAPGDTHFRTFRSHADYRRITRASALLDACGFYWGPLSVHGAHERLRAEPVGTFLVRDSRQRNCFFALSVKMASGPTSIRVHFQAGRFHLDGSRESFDCLFELLEHYVAAPRRMLGAPLRQRRVRPLQELCRQRIVATVGRENLARIPLNPVLRDYLSSFPFQI", "soluble on expression in E. coli": "not soluble"}, {"sequence": "MSLDSIVNAYEESDVLDPRTDAERPSVPPVIKPVDLGPVHVETPVVLSPMAGVTNWPFRVICESYGPDGLYVAEMITARALVARNPKALRLCRFAPSEKIRSLQLYGVNPSIVEQAAKIVIDENMADHVDLNFGCPVPKVTRRGGGSALPWKTDLFREIIQRVVKVCDAANVPVTAKIRVGIDHEHETFLEAGHIAQEEGCKAVTLHARTTAEYYGGHSDWSRIGELVSELDIPVFGNGDIWGANDALAMVAETGCAGVAIGRGCQGRPWLFADIKNAFAGSDERVDPTLGDVCRVIERHAELLTEFYDEGHHHHHH", "soluble on expression in E. coli": "not soluble"}, {"sequence": "GPGSMMDCDHLLRLGMTAKKILENGKGILAADETPKTLGRRFEKLGITNTEENRRKFREILFSTKGIERYIGGVILNQETFEQTSGSGVPLTELLKKKGIEIGIKLDKGLIDYKEKEKISVGLEDLDLRCKSSAFKDATFAKWRSLFYFYDGIPSEDCINENCSILAKYAIICQKNGLVPIVEPEVFLEGDYSMKRSYEVTRQILSTLMKYLNYELVYIPGVLIKASYVTSGQLSNEKYTPKKVATFTLRALLSTIPCGIPGIVFLSGGHGSEDAIGFLNAINMERGCRTWSLSFSFARALTDGVLETWRGDDSNIEEAQKILLETSFKACRGAEGKLWDQE", "soluble on expression in E. coli": "soluble"}, {"sequence": "MAEKFDCHYCRDPLQGKKYVQKDGHHCCLKCFDKFCANTCVECRKPIGADSKEVHYKNRFWHDTCFRCAKCLHPLANETFVAKDNKILCNKCTTREDSPKCKGCFKAIVAGDQNVEYKGTVWHKDCFTCSNCKQVIGTGSFFPKGEDFYCVTCHETKFAEHCVKCNKAITSGGITYQDQPWHADCFVCVTCSKKLAGQRFTAVEDQYYCVDCYKNFVAKKCAGCKNPITGFGKGSSVVAYEGQSWHDYCFHCKKCSVNLANKRFVFHQEQVYCPDCAKKL", "soluble on expression in E. coli": "soluble"}, {"sequence": "MNRTLYTVLFHLGLPLVALRLWLRARKAPAYRQRIGERFASGLPAMQRDGIWVHAVSVGESIAAAPMIRALLVQYPQLPITVTCMTPTGSERIKALFANEPRIQYCYLPYDLPWAAGRFLDHVQPQLGIIMETELWPNHIHQCAKRAIPVVLANARLSERSARGYARFARLTQPMLAEMAWFAVQTEVEAQRFRDLGARAECVVVTGSIKFDLNIDPQLLERAAQLREQWQATQRPVWIAASTHAGEDESVLSAHRTLLASHPDALLILVPRHPERFDSVHALCQQQGFKTVRRSSAQAVTPDVAVLMGDTMGELLFLYALVDIAFVGGSLVPNGGHNLLEPAALAKPVLSGPHLFNFLEIAAMLRTAGALQEVSDATALATAVQRLIDQPQQARSMADAGLAVMKANQGALQRLLDGIERLMAKRRVAEDAERPERHAHAERRHDSAAALEHHHHHH", "soluble on expression in E. coli": "not soluble"}, {"sequence": "MGSDKIHHHHHHMAETAPAPYFSEIARGPDQVEAHWLTTQDGQRIRAGLWRSHGPSAGTILLFPGRTEYIEKYGPLAIDLTDRGFDVLTVDWRGQGLADRSLSDGRLGHVAEFGAFQLDVAALVAHAEALNLPRPWYLLGHSMGGAIGLRALHEGLPVAACAFTAPMWAIRIPFALRPAARLLARFGTALGVSEKLVPTTTIEQYVQVTPFEGNTLTNDPEMYAFLQMQMTQHPELALGGPTVQWLSQAMLECADLRARPSPDVPCVTFLGENEQIVATEAIHDRMARWPSGKLEMIPDAQHEILMEIPQTRRQTCAILTAHFKKHV", "soluble on expression in E. coli": "not soluble"}, {"sequence": "MNSDPTRERILHGLITLYILKELVKRPMHGYELQKSMFETTGQALPQGSIYILLKTMKERGFVISESSVNEKGQQLTVYHITDAGKKFLCDHSQALQLARKIIDDLLSTVDIIENRN", "soluble on expression in E. coli": "soluble"}, {"sequence": "MAHHHHHHMSAWASGDTLERLKLKPETAPSNRGNGRQASADATSSTSVKATSNADAEGVVQASMAATIASTNKNKNKKALEGKVSKKNAPKNTAHTADEKQPPTQEQTASSSGGAKRNEPKKGASDSRDCPVTLPSDVAELVVNAFTFIGTVQALRAGTSTDGRESMLSAAVRAPEFVPQRRDYAVQNATSGSDTQHVGELASNAYPMHHHHHHHHYQLHQQQKQPQHTPLVSTSRVQQQEQPPWAPYYNDQQHRQHHSVHHHRHQQQQQQLAYGQPDCTTGKMYHDAYSPVDYDMNLCAAPPYSRMYSGYPGMCMGANMLPNMSGYGGLALRRPLPYFPQQQNQVTAYKSTHVGQQQPWMRNDSGPSNARKGSGAGQWYPGGQAGFNDALSVWNQQRNAGNWARQAEQSGPAGAHTSSAP", "soluble on expression in E. coli": "not soluble"}, {"sequence": "MLEKWEPIMAETRKLKYDEAALRTLTREDLDALEIGAGILGTGGGGNPYLGKLLALEAMKAGYEMKILATDAIEPDALCMSIGGIGAPVVGVERIREGREGLRCLRAMEELIRTPVDAIVCEEIGGSNSMNPLVTAALGGLPILDCDGMGRAFPEMQMTTFSIYGHSSTPSVMCDLHGNAVIFSHAVSEVWHERMARACVVAQGGGAMLATAPMQAHYVHQYGIPKTYTKAIAIGEAVIRARKQQEDPIAAVCALEGGRRIFNGKITDLKRHLRGGFAVGDLTLSGFDDCAGQTAGVAIQNEFLLFSRDGKVEVTVPDLIVLLDVDTGYPITTEVLRYGQRVAVIAIPCHDLLRSARALEVVGPAAFGYPDIPFSPLPLPVSKAALEHHHHHH", "soluble on expression in E. coli": "soluble"}, {"sequence": "MGHHHHHHSHMSPAPVIPSNTDYPGPHHFEVTFQQSSTAKSATWTYSPLLKKLYCQIAKTCPIQIKVSTPPPPGTAIRAMPVYKKAEHVTDVVKRCPNHELGRDFNEGQSAPASHLIRVEGNNLSQYVDDPVTGRQSVVVPYEPPQVGTEFTTILYNFMCNSSCVGGMNRRPILIIITLEMRDGQVLGRRSFEGRICACPGRDRKADEDHYREQQALNE", "soluble on expression in E. coli": "soluble"}, {"sequence": "MSLGKKELIGFQVGVRESTQSWHELLVEAKTRGLKIAPEIAVGDGALGFWKALDEVFPATRHQRCWVHKTANILNKVAVSVQASMKKDLREVYLASNRASAEVAIDVFAEKYGAKYDKAVECLTKDRDAMLAFYEFPAEHWDHLRTTNPIESVFATVRHRTVRTKGSLSSTTAKLMVFKLLCAASKTWRRLKGTNQLPKVSAGVRFENGIEEGHHHHHH", "soluble on expression in E. coli": "not soluble"}, {"sequence": "MELYETSPYFYQEPRFYDGENYLPVHLQGFEPPGYERTELTLSPEAPGPLEDKGLGTPEHCPGQCLPWACKVCKRKSVSVDRRRAATLREKRRLKKVNEAFEALKRSTLLNPNQRLPKVEILRSAIQYIERLQALLSSLNQEERDLRYRGGGGPQPGVPSECSSHSASCSPEWGSALEFSANPGDHLLTADPTDAHNLHSLTSIVDSITVEDVSVAFPDETMPN", "soluble on expression in E. coli": "soluble"}, {"sequence": "GPGSMVEVPRNFRLLQELEAGEKGTGVSQSVSIGLSGMDDIYMHNWNGTILGPPGTTFENRILSLEIHCDEHYPKRPPNIKFISRVNLPCVSSDGTVDKNKFAVFKTWDRNFTMAHCLMELRREMSLPANKKLPQPEEGSTY", "soluble on expression in E. coli": "soluble"}]}]}
